Results: the nanobody polyreactivity screen of Harvey et al. (2022)

experiment: yeast display, Sf9 membrane polyspecificity reagent, FACS + sequencing; frameworks hold sequencing errors
Procedure, shortened: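 Galactose-induced (36–48 hours) yeast carrying a synthetic nanobody display library were exposed to 10% biotinylated, detergent-solubilized Sf9 membrane reagent at 4 °C for 1 hour. FACS followed streptavidin microbead enrichment, using low and high (top ~1%) gates for expression (anti-HA) and reagent binding (streptavidin). Colony PCR, MiSeq 2 × 250 sequencing and CDR-length filtering followed. Labels for polyreactivity reflect the gate of origin.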

Sequence	polyreactivity (PSR sort gate)
QVQLVESGGGLVQAGGSLRLSCAASGRTFYNAMGWYRQAPGKERELVAAISASGARTYYADSVKGRFTISRDNAKNTVYLQMNSLKPEDTAVYYCATKSQRYARDYWGQGTQVTVSS	high polyreactivity
QVQLVESGGGLVQAGGSLRLSCAASGRTFYNAMGWYRQAPGKERQLVAAITTGGGTKYADSVKGRFTISRDNAKNTVYLEMNSLKPEDTAVYYCNTDEWNHFYHGAHKYDYWGQGTQVTVSS	low polyreactivity
QVQLVESGGGLVQAGGSLRLSCAASGRTFYNNAMGWYRQAPGKERELVAAISQRTGRTYYADSVKGRFTISRDNAKNTVYLQMNSLKPEDTAVYYCNKVAYYSRRMDYWGQGTQVTVSS	high polyreactivity
QVQLVESGGGLVQAGGSLRLSCAASGRTFYNYAMGWYRQAPGKERELVAAITRGGSTYYADSVKGRFTISRDNAKNTVYLQMNSLKPEDTAVYYCNAVFPYEHEEYDYWGQGTQVTVSS	high polyreactivity
QVQLVESGGGLVQAGGSLRLSCAASGRTFYNYAMGWYRQAPGKERELVAAITRGGSTYYADSVKGRFTISRDNAQNTVYLQMNSLKPEDTAVYYCNAKYIKGRDWGQGTQVTVSS	high polyreactivity
QVQLVESGGGLVQAGGSLRLSCAASGRTFYNYAMGWYRQAPGKERELVATITGRGGRTFYAHSVKGRFTISRDNAKNTVYLQMNSLTPEDTAVYYCAAYGSASPYYTLYVEHDYWGQGTQVTVSS	low polyreactivity
QVQLVESGGGLVQAGGSLRLSCAASGRTFYPNAMGWYRQAPGKEREFVARISDSGGYTYYADSVKGRFTISRDNAKNTVYLQMNSLKPEDTAVYYCAADYGDPRVNEYDYWGQGTQVTVSS	low polyreactivity
QVQLVESGGGLVQAGGSLRLSCAASGRTFYPNAMGWYRQAPGKERELVAAISYSGGSTYYADSVKGRFTISRDNAKNTVYLQMNSLKPEDTAVYYCAAEFSLDKRDYWGQGTQVTVSS	low polyreactivity
QVQLVESGGGLVQAGGSLRLSCAASGRTFYPNAMGWYRQAPRKERELVADITYSGASTYYADSVKGRFTISRDNAKNSVFLQMNSLKPEDTAVYYCNADESGVLVYVPYDYLGQGTQVTVSS	low polyreactivity
QVQLVESGGGLVQAGGSLRLSCAASGRTFYPNVMGWYRQAPGKERELVAAISISGGSTRYADSVKGRFTISRDNAKNTVYLQMNSLKPEDTAVYYCAAGYIYWYYSYDYWGQGTQVTVSS	high polyreactivity
QVQLVESGGGLVQAGGSLRLSCAASGRTFYPYAMGWYIQAPGKEREFVATITWSGTTTYYADSVKGSFTISRDNAKNTFYLQMNSLKPVDTAVYYCAADVWEVVTPYGTIDDDYWGQGTQVTVSS	high polyreactivity
QVQLVESGGGLVQAGGSLRLSCAASGRTFYPYAMGWYRPAPGKERELVAAIRWSGGSTYYADSVKGRFTISRDNAKNTVYLQMNSLKPEDTAVYYCNADWKSYRGPKFDYWGQGTQVTVSS	low polyreactivity
QVQLVESGGGLVQAGGSLRLSCAASGRTFYPYAMGWYRQAPGKEREFVAAIRWRGGSTRYADSVKGRFTISRDNAKNTVYLQMNSLKPEDTAVYYCAADLRLGLNYYYWGQGTQVTVSS	high polyreactivity
QVQLVESGGGLVQAGGSLRLSCAASGRTFYPYAMGWYRQAPGKERELVARISASGGSTYYADSVKGRFTISRDNAKNTVYLQMNSLKTEDTAVYYCARESFWRTLMDYWGQGTQVTVSS	high polyreactivity
QVQLVESGGGLVQAGGSLRLSCAASGRTFYPYAMGWYRQAPGKERELVATITWSGTTTYYADSVKGRFTISRDNAKNIVYLQMNSLKPEDTAVYYCAADVWEVVTPYGTIDDDYWGQGTQVTVSS	high polyreactivity
QVQLVESGGGLVQAGGSLRLSCAASGRTFYPYAMGWYRQEPGKVRELVARISSGGNTKYADSVKGRFTISRDNAKNTVYLQMNSLKPEDTAVYYCNAAHYDYVAWKRFNYWGQGTQVTVSS	high polyreactivity
QVQLVESGGGLVQAGGSLRLSCAASGRTFYPYVMGWYRQAPGKEREFVAAISGTGGTTYYADSVKGRFTISRDNAKTTVYLQMNSLKPEDTAVYYCNRRIPYTSYSYGYWGQGTQVTVSS	high polyreactivity
